Test results from article PMC6155126.

How the values were obtained:
[1] = target: Ku70/80 (Ku70 subunit);Ku70/80 (Ku80 subunit);Pol λ WT;PAXX (cleaved) (Homo sapiens;Homo sapiens;Homo …, UniProt P12956;P13010;Q9UGP5;Q9BUH6 1-609;1-732;1-575;1-204, |||); assay: EMSA supershift; 20 nM Ku, 0.5 µM PAXX; EMSA: 50 mM Tris-HCl pH 7.5, 100 mM KCl, 2.5 mM MgCl2, 1 mM DTT, 4% glycerol, 0.05% Triton X-100, 0.1 mg/ml BSA, 10-20 nM DNA, 30 min at 25 °C; 4-5% native PAGE, 0.5x TBE, 4 °C; details: protein: recombinant;recombinant;recombinant;recombinant; tags: FLAG;FLAG;FLAG;GST tag cleaved (PreScission); copies: 1;1;1;2; label: 5' IRDye 700 on one strand; 5-nt gap
[2] = target: Ku70/80 (Ku70 subunit);Ku70/80 (Ku80 subunit);PAXX (cleaved) (Homo sapiens;Homo sapiens;Homo sapiens, UniProt P12956;P13010;Q9BUH6 1-609;1-732;1-204, ||); assay: as above; details: protein: recombinant;recombinant;recombinant; tags: FLAG;FLAG;GST tag cleaved (PreScission); copies: 1;1;2; label: 5' IRDye 700 on one strand; 5-nt gap
[3] = target: Ku70/80 (Ku70 subunit);Ku70/80 (Ku80 subunit);Pol λ WT (Homo sapiens;Homo sapiens;Homo sapiens, UniProt P12956;P13010;Q9UGP5 1-609;1-732;1-575, ||); assay: EMSA supershift; 20 nM Ku; EMSA: 50 mM Tris-HCl pH 7.5, 100 mM KCl, 2.5 mM MgCl2, 1 mM DTT, 4% glycerol, 0.05% Triton X-100, 0.1 mg/ml BSA, 10-20 nM DNA, 30 min at 25 °C; 4-5% native PAGE, 0.5x TBE, 4 °C; details: protein: recombinant;recombinant;recombinant; tags: FLAG;FLAG;FLAG; copies: 1;1;1; label: 5' IRDye 700 on one strand; 5-nt gap
Sequence of Ku70/80 (Ku70 subunit);Ku70/80 (Ku80 subunit);Pol λ WT (P12956 whole entry, chain 1 of 3): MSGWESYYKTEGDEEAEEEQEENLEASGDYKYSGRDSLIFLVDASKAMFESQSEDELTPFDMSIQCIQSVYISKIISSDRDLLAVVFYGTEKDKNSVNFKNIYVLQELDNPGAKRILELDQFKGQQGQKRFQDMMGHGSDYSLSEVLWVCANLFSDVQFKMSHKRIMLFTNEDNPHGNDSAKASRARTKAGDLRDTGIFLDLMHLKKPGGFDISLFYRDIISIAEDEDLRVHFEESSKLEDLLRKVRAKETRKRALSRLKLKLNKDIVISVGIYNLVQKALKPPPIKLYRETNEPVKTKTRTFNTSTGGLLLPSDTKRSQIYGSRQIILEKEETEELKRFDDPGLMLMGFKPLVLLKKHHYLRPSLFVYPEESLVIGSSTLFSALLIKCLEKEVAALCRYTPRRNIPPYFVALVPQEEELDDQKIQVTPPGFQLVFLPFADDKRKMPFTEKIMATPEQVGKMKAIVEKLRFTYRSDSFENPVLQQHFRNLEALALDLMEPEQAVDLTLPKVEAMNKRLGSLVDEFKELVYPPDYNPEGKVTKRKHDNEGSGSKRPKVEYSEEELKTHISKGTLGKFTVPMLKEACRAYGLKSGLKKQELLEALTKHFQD
Sequence of Ku70/80 (Ku70 subunit);Ku70/80 (Ku80 subunit);Pol λ WT (P13010 whole entry, chain 2 of 3): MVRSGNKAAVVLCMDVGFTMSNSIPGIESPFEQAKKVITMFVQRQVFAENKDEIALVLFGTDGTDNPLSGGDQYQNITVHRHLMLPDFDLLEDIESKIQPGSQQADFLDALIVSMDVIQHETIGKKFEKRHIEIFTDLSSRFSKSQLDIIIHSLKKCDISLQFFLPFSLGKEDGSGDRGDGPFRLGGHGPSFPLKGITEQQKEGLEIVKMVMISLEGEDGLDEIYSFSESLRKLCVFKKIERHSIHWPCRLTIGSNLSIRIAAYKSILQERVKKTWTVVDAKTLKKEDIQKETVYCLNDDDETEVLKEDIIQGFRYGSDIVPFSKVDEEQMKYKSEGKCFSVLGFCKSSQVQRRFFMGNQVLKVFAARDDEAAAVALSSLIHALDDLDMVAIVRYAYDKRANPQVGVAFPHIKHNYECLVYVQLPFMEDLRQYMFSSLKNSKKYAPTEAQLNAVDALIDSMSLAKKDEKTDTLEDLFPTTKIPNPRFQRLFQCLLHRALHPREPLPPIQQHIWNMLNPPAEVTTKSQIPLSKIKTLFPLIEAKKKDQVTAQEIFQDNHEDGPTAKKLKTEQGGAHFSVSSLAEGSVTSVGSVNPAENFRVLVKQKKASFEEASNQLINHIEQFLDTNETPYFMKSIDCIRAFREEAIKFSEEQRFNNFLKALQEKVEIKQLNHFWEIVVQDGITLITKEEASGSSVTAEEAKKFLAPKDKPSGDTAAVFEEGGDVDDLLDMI
Sequence of Ku70/80 (Ku70 subunit);Ku70/80 (Ku80 subunit);Pol λ WT (Q9UGP5 whole entry, chain 3 of 3): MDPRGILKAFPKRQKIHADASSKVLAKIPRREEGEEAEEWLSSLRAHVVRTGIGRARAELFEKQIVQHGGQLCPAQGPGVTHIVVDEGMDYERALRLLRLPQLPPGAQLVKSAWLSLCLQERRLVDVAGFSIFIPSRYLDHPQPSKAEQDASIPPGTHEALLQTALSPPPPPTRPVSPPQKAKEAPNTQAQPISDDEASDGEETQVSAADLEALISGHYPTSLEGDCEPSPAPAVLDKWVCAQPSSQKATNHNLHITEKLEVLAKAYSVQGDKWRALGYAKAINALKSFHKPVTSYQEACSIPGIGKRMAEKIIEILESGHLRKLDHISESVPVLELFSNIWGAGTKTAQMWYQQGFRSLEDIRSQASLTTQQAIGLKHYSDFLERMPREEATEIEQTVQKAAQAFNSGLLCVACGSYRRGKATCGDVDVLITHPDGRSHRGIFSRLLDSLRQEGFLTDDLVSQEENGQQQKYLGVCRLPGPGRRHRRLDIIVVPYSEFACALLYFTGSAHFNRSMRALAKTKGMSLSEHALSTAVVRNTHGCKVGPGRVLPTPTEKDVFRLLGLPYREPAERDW

[4] = target: Ku70/80 (Ku70 subunit);Ku70/80 (Ku80 subunit);Pol λ R57A/L60A (RL) (Homo sapiens;Homo sapiens;Homo sapiens, UniProt P12956;P13010;Q9UGP5 1-609;1-732;1-575, ||R57A;L60A); assay: EMSA supershift; 20 nM Ku, 50 nM Pol λ-RL; mutant does not join DNA-bound Ku; EMSA: 50 mM Tris-HCl pH 7.5, 100 mM KCl, 2.5 mM MgCl2, 1 mM DTT, 4% glycerol, 0.05% Triton X-100, 0.1 mg/ml BSA, 10-20 nM DNA, 30 min at 25 °C; 4-5% native PAGE, 0.5x TBE, 4 °C; details: protein: recombinant;recombinant;recombinant, tags: FLAG;FLAG;FLAG, copies: 1;1;1, label: IRDye 700 at 5' end of S5, 5-nt gap (CTATT of S4 unpaired), blunt outer ends
Sequence of Ku70/80 (Ku70 subunit);Ku70/80 (Ku80 subunit);Pol λ R57A/L60A (RL) (P12956 whole entry, chain 1 of 3): as the sequence (P12956 whole entry, chain 1 of 3) above
Sequence of Ku70/80 (Ku70 subunit);Ku70/80 (Ku80 subunit);Pol λ R57A/L60A (RL) (P13010 whole entry, chain 2 of 3): as the sequence (P13010 whole entry, chain 2 of 3) above
Sequence of Ku70/80 (Ku70 subunit);Ku70/80 (Ku80 subunit);Pol λ R57A/L60A (RL) (Q9UGP5 whole entry R57A/L60A, chain 3 of 3): as the sequence (Q9UGP5 whole entry, chain 3 of 3) above, with R57A, L60A counted along it

B1: 5nt-gapped dsDNA 30-mer (dsDNA)
DNA 1: ACTGGCCGTCGTTCTATTGTACTCACTGTGATC
DNA 2: GATCACAGTGAGTAC
DNA 3: AACGACGGCCAGT
**Q.** Does B1 bind [1]?
**A.** binds

**Q.** Does B1 bind [2]?
**A.** binds

**Q.** Does B1 bind [3]?
**A.** binds

B2: 5nt-gapped dsDNA 33-mer (dsDNA)
DNA 1: B1 DNA 1
DNA 2: GATCACAGTGAGTAC
DNA 3: AACGACGGCCAGT
modifications: 5'-phosphate on the 13-mer
**Q.** Does B2 bind [4]?
**A.** no binding
